# Laboratory results reported in FireProtDB (doi:10.1002/pro.342).
# Details: Escherichia coli, pH 6.3, CD, Phosphate 50 mM, NaCl 300 mM, whole UniProt chain shown
protein,measurement,setting,value
"Regulatory protein rop wild type, P03051 (protein) MTKQEKTALNMARFIRSQTLTLLEKLNELDADEQADICESLHDHADELYRSCLARFGDDGENL",Tm,Thermal,70 °C
same,heat capacity change of unfolding,Thermal,1.1 kcal/mol/K
same,unfolding enthalpy (van 't Hoff),Thermal,65 kcal/mol
same,denaturant m value,Urea,2.1 kcal/mol/M
same,denaturant midpoint (higher = more stable),Urea,4.6 M
same,unfolding free energy,Urea,16 kcal/mol
